From publication PMC9354671, “Novel interaction interfaces mediate the interaction between the NEIL1 DNA glycosylase and mitochondrial transcription factor A” (Frontiers in Cell and Developmental Biology, 2022)

Assays:
Details in all cases: both partners purified
[1] = target: T1, NEIL1-Δ100, truncated NEIL1 lacking 100 residues from the disordered C-terminal region (human, UniProt Q96FI4 1-290); assay: pull-down; reverse: Flag-tagged TFAM held on anti-FLAG M2 magnetic beads, NEIL1-FL or NEIL1-Δ100 as prey; with and without DNA; eluted with 3X Flag peptide, SDS-PAGE
T1 construct: NEIL1, human, C-terminal 100 residues deleted; Prakash et al., 2017; Sharma et al., 2018; also called NEIL1-∆100; source: E. coli Rosetta 2, purified
T1 sequence (Q96FI4 1-290, stated change not applied): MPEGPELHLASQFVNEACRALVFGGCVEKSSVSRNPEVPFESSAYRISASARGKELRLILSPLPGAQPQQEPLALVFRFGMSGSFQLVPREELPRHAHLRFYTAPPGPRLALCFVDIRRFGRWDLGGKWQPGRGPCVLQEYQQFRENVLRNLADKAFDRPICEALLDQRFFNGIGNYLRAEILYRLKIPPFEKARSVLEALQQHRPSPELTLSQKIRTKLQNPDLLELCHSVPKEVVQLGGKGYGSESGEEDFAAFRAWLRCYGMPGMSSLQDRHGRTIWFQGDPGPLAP

[2] = target: T2, full-length NEIL1 (NEIL1-FL), C-terminal His-tagged (human, UniProt Q96FI4 1-390); assay: far-Western, overlay or dot blot; 50 pmol NEIL1 polypeptides separated by SDS-PAGE, on PVDF, denatured in 6M guanidine HCl and refolded; incubated with purified TFAM overnight; detected with anti-TFAM antibody
T2 construct: NEIL1 DNA glycosylase, human, full length (390 residues by the printed tail aa 290-390; theoretical mass with tag 44.75 kDa); pET30a plasmid from the Doublié and Wallace laboratories; Called 'untagged' in the Flag pull-down, meaning without Flag; also called NEIL1 DNA glycosylase; source: E. coli Rosetta 2, purified (Talon beads, HiTrap SPFF ion exchange, Superdex 200); not shown: His tag, …
T2 sequence (Q96FI4 whole entry, the tested form may be a part): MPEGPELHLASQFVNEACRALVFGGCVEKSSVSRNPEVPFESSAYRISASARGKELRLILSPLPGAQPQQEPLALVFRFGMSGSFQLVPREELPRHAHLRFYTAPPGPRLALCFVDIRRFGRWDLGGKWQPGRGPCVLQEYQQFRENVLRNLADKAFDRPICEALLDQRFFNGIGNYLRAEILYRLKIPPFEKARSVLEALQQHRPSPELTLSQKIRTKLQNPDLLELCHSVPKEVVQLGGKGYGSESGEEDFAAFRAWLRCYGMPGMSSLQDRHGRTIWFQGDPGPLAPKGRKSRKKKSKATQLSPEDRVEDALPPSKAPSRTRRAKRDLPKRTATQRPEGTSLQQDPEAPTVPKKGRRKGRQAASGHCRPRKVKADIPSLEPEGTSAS

[3] = target: T1, NEIL1-Δ100, truncated NEIL1 lacking 100 …; assay: as above
NEIL1-∆40 = target: T3, NEIL1-∆40 (human, UniProt Q96FI4 1-350); assay: as above
T3 construct: NEIL1, human, C-terminal 40 residues deleted; source: E. coli Rosetta 2, purified
T3 sequence (Q96FI4 1-350): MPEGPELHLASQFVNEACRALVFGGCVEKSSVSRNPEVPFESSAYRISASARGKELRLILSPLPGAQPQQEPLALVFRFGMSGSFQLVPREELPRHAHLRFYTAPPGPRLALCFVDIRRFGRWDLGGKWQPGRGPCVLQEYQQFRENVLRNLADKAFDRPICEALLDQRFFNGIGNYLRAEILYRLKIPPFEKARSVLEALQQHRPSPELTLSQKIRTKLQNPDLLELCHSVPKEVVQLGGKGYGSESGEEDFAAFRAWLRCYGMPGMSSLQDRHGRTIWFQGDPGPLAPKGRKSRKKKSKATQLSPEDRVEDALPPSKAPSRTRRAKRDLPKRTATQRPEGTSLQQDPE

NEIL1-∆56 = target: T4, NEIL1-∆56 (human, UniProt Q96FI4 1-334); assay: as above
T4 construct: NEIL1, human, C-terminal 56 residues deleted; source: E. coli Rosetta 2, purified
T4 sequence (Q96FI4 1-334): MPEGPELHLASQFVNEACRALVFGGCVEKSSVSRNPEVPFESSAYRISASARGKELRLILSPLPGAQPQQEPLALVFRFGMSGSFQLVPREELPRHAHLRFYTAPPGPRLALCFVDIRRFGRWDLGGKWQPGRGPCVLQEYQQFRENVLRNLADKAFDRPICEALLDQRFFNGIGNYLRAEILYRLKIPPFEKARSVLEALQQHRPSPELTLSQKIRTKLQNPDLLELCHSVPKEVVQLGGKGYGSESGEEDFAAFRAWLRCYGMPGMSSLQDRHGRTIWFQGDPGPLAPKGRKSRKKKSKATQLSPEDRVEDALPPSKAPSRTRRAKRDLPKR

NEIL1-∆78 = target: T5, NEIL1-∆78 (human, UniProt Q96FI4 1-312); assay: as above
T5 construct: NEIL1, human, C-terminal 78 residues deleted; source: E. coli Rosetta 2, purified
T5 sequence (Q96FI4 1-312): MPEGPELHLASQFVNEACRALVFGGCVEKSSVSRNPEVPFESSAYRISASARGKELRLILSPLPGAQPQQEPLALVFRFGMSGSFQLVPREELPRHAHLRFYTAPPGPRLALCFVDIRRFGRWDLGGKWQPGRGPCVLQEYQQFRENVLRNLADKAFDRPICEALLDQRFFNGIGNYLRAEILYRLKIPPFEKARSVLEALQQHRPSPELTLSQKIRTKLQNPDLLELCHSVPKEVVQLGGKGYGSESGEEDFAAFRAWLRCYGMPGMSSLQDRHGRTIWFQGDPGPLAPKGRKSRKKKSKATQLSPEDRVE

Measured: binding result

B1: Flag-tagged TFAM (natural protein, UniProt Q00059 43-246, looked up)
chain: SSVLASCPKKPVSSYLRFSKEQLPIFKAQNPDAKTTELIRRIAQRWRELPDSKKKIYQDAYRAEWQVYKEEISRFKEQLTPSQIMSLEKEIMDKHLKRKAMTKKKELTLLGKPKRPRSAYNVYVAERFQEAKGDSPQEKLKTVKENWKNLSDSEKELYIQHAKEDETRYHNEMKSWEEQMIEVGRKDLLRRTIKKQRKYGAEEC
notes: also called C-terminal Flag-tagged purified TFAM; source: E. coli, purified; not shown: Flag, C-terminal, kept
binds: [1]

B2: mitochondrial transcription factor A (TFAM) lacking the mitochondrial targeting sequence (natural protein, UniProt Q00059 43-246, looked up)
chain: B1 chain
notes: theoretical MW 25.6 kDa; Printed domain limits: HMG-box A 43-122, linker 122-152, HMG-box B 152-222, C-terminal tail 222-246; Subcloned into pET30a from a full-length ORF plasmid; also called full-length TFAM monomer (lacking the N-terminal MTS); source: E. coli, purified (as Ngo et al., 2011)
binds: [2] | [3] | NEIL1-∆40 | NEIL1-∆56 | NEIL1-∆78
